Here are results for twelve molecules from patent publication US20230279128A1 (SYNTHEKINE, published 2023).

B1: DR934 (VHH)
VHH: QVQLVESGGGLVQAGGSLRLSCAASGRSFANYAMGWFRQAPGKERETVAAISRGGGSTWYADSVKGRFTISKDNAKNTVYLQMNSLKPEDTAIYYCAARSYSGSYTYSFGEYDYWGQGTQVTVSS
B2: DR932 (VHH)
VHH: QVQLVESGGGLVQAGGFLRLSCAASGRTFSYTTIGWFRQAPGKEREFVAVISAGGGSRDYADALKGRFTISRDNAKKMVYLQMNNLKPEDTAVYYCAVRRNTDTYTTTGDYDYWGQGTQVTVSS
B3: DR935 (VHH)
VHH: QVQLVESGGGLVQAGGSLRLSCAASGRAFSTYALGWFRQAPGKEREFIAAISRGGGSTDYADSVKGRFTISRDNAKSTVYLQMNSLKPEDTAVYYCAARSYSSSYYYSQYEYDYWGQGTQVTVSS
B4: DR931 (VHH)
VHH: QVQLVESGGGLVQAGGSLLLSCAASGRTFSTYAMGWFRQAPGKERMFVAAISVNGGSTYYADSVTGRFTISRDNAKNTMYLQMNNLKPGDTAVYYCAARRPYPGSDFLTWASYDYRGQGTLVTVSS
B5: DR933 (VHH)
VHH: QVQLVESGGGLVQPGDSLRLSCVASGGTISSLAMGWFRQAPGKEREFVAAISWSGRSTYYVDSVKGRFTISTDNAKNTVYLQMNSLKPEDTAVYYCVAGEDGHSEYDYWGQGTQVTVSS
B6: DR930 (VHH)
VHH: EVQLVESGGGLVQAGGSLRLSCTVSGRTFSSYAVAWFRQAPGNVRELAAALSRGGGSAYYTDSVKGRFTISRDNAKNTVYLQMNSLKPEDTAVYYCAARNYDGTYYQENQYNYWGQGTQVTVSS
B7: DR956 (VHH)
VHH: EVQLVESGGGLVQAGGSLRLSCAASGRTFSSLAMAWFRQAPGKEREFVAATTILGGSADYGDPVKGRFTISRDNAKNTVYLQMNSLKPEDTAVYYCTGRRPAPSDNYWSPASYAYWGQGTQVTVSS
B8: DR958 (VHH)
VHH: QVQLVESGGGLVQAGDSLTLSCTASGRTFSGYNMGWFRQAPGKERDFVAAINWIGGATYYADSVKGRFTISRDNAKNTVYLQMNSLKPEDTAVYYCHRYSEKFYSGKDYYTRDYDYWGQGTQVTVSS
B9: DR954 (VHH)
VHH: QVQLVESGGGLVQAGGSLRLSCAAARRTLHNFAMAWFRQAPGKEREFVAAISKGGGSADYADSVKGRFTISRDNAKNTVYLQMNSLKPEDTAVYYCAANDLASYSDSSYTSTSRYDYWGQGTQVTVSS
B10: DR929 (VHH)
VHH: QVQLVESGGGLVQAGGSLRLSCVASGRTFSSYAMGWFRQTPGKEREFVSAISRGGGSTDYADSVKGRFTISRDNAKNTVYLQMNNLKSEDTAVYYCALRAYSGRYYQFLEYDYWGQGTQVTVSS
B11: DR955 (VHH)
VHH: QVQLVESGGGLVQTGGSLRLSCAASGRTFSSYAMAWFRQAPGKEREFVAAISILGGSADYEDSVQGRFTISRDNAKNTMYLQMNSLKPEDTAVYYCAARRPAPSDSYWSSTSYAYWGQGTLVTVSS
B12: DR957 (VHH)
VHH: QVQLVESGGGLVQAGGSLRLSCAPSGRTFSSYAMAWFRQPPGKEREFVAAITVSGASTYYADSVKGRFTISRDNAKNSMYLQMNSLKPEDTAVYYCAAGGPGTIFPDYDYWGQGTQVTVSS

The target of the first test is T1, extracellular domain of hIFNgR2 (human, UniProt P38484 28-247).
T1 construct: also called hIFNgR2 ECD; hIFNgR2-ECD
T1 sequence: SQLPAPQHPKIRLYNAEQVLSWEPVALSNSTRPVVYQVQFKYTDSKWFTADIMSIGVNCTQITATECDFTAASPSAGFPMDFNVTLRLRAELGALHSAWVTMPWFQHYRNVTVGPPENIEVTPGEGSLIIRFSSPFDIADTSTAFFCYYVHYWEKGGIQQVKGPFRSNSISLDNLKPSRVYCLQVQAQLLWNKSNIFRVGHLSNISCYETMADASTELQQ
The experiment in a line: flow cytometry.
As for B1, the binding result is on record as “binds”.

On to B2, for which the binding result is recorded as “binds”.

As to B3, the binding result is on record as “binds”.

Regarding B4, the binding result is on record as “binds”.

As for B5, the binding result was “binds”.

Regarding B6, the binding result was “binds”.

The next test deals with T2, extracellular domain of mIFNgR2 (mouse).
T2 construct: also called mIFNgR2 ECD; mouse IFNgR2 extracellular domain
T2 chain: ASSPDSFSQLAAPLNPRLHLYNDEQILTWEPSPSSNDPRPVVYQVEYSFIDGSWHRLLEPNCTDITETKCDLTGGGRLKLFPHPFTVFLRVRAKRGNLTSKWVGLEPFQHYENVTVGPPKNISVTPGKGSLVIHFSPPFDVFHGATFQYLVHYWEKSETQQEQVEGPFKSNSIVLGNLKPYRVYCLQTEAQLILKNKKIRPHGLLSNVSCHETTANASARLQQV
The test can be described thus: flow cytometry, cross-reactivity.
Regarding B7, the binding result is “binds”.

In the case of B8, the binding result is “binds”.

For B1, the binding result is on record as “binds”.

Regarding B9, the binding result is given as “binds”.

B2: the binding result is on record as “binds”.

For the molecule B10, the binding result is “binds”.

Consider B3, for which the binding result is on record as “binds”.

On to B4, for which the binding result was “binds”.

On to B5, for which the binding result is reported as “binds”.

For the molecule B11, the binding result was “binds”.

Take B6: the binding result was “binds”.

Consider B12, for which the binding result is “binds”.

The target in a further test is T1, extracellular domain of hIFNgR2. The experiment in a line: phage biopanning and periplasmic extract ELISA (PE-ELISA). As for the experimental part: Upon completion of the biopanning of Example 3, three 96-well plates of individual phage clones were isolated in order to perform periplasmic extract ELISA (PE-ELISA) on IFNgR2 coated plates to identify positive VHH binders that selectively bound IFNgR2. A 96-well plate was coated with IFNgR2 and PBS under the same conditions. Next, wells were blocked at 37° C. for 1 h. Then, 100 μl of extracted antibodies was added to each well and incubated for 1 h. Subsequently, 100 μl of anti-tag polyclonal antibody conjugated to HRP was added to each well and incubated at 37° C. for 1 h. Plates were developed with TMB substrate. The reaction was stopped by the addition of H2SO4. Absorbance at 450 nm was read on a microtiter plate reader. Antibodies with absorbance of the antigen-coated well at least threefold greater than PBS-coated control were considered to provide specific binding to IFNgR2. Positive clones were sequenced, and sequences analyzed to identify unique clonotypes
Consider B7, for which the binding result is listed as “binds”.

As to B8, the binding result is “binds”.

In the case of B9, the binding result was “binds”.

As to B10, the binding result was “binds”.

For B11, the binding result is “binds”.

Take B12: the binding result is given as “binds”.
